Results from FireProtDB (doi:10.1110/ps.8.9.1843).

Conditions: CD, whole UniProt chain shown; for denaturant m value / denaturant midpoint (higher = more stable): Aspergillus oryzae (strain ATCC 42149 / RIB 40), 25 °C, Urea
[1] = Kitasatospora aureofaciens, pH 7, Thermal, MOPS 30 mM

Row | Protein | Tm [1] [°C] | unfolding enthalpy (van 't Hoff) [1] [kcal/mol] | denaturant m value (pH 2.5, glycine 30 mM) [kcal/mol/M] | denaturant midpoint (higher = more stable) (pH 2.5, glycine 30 mM) [M] | denaturant m value (pH 7, MOPS 30 mM) [kcal/mol/M] | denaturant midpoint (higher = more stable) (pH 7, MOPS 30 mM) [M]
1 | Guanyl-specific ribonuclease Sa wild type, P05798 (protein) DVSGTVCLSALPPEATDTLNLIASDGPFPYSQDGVVFQNRESVLPTQSYGYYHEYTVITPGARTRGTRRIITGEATQEDYYTGDHYATFSLIDQTC | 47.2 | 91 | – | – | – | –
2 | Guanyl-specific ribonuclease T1 wild type, P00651 (protein) MMYSKLLTLTTLLLPTALALPSLVERACDYTCGSNCYSSSDVSTAQAAGYQLHEDGETVGSNSYPHKYNNYEGFDFSVSSPYYEWPILSSGDVYSGGSPGADRVVFNENNQLAGVITHTGASGNNFVECT | – | – | 1.59 | 3.66 | 1.23 | 5.23
